Values quoted from earlier work in publication PMC6769993, “Immunomodulatory Functions of the Human Cathelicidin LL-37 (aa 13–31)-Derived Peptides are Associated with Predicted α-Helical Propensity and Hydrophobic Index” (Biomolecules, 2019).

Description: The minimum region of LL-37 required for its immunomodulatory functions is an internal sequence from amino acids 13–31 [13], known as peptide IG-19. […] IG-19 suppresses inflammatory cytokine production by engaging various signaling intermediates in the presence of bacterial endotoxin or cytokine IL-32 [10, 13, 14]. Both LL-37 and IG-19 also share structural similarities; these are both α-helical amphipathic peptides with net positive charges of +6 and +5, respectively. Previous s ...

LL-37: the only human cathelicidin cationic host defense peptide, 37 amino acids
Net positive charge: +6
